PMC4517869, “EIN3 and ORE1 Accelerate Degreening during Ethylene-Mediated Leaf Senescence by Directly Activating Chlorophyll Catabolic Genes in Arabidopsis”

Columns and labels:
[1] = biological target: T1, MBP-N-EIN3 (Arabidopsis thaliana, UniProt O24606 1-314); assay: EMSA; LightShift Chemiluminescent EMSA kit binding buffer (composition, pH, temperature not given); 400 ng protein, 12.5 fmol 5'-biotin probe, 1 ug poly(dI-dC), 15 min; settings: protein: recombinant; tags: N-terminal MBP (pMAL-c5g); chain copies: 2; label: 5'-biotin; blunt
T1 sequence: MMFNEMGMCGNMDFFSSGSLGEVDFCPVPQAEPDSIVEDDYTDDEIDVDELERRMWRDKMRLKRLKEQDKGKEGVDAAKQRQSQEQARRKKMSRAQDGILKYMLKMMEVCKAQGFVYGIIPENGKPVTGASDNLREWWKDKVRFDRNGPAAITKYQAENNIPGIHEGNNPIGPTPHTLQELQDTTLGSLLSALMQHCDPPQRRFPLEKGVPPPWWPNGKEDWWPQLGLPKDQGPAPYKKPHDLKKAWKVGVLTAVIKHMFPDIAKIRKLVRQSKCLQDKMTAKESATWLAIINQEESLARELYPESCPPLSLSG

[2] = biological target: T2, MBP-ORE1 (Arabidopsis thaliana, UniProt Q9FKA0 1-285); assay: as above; settings: protein: recombinant; tags: N-terminal MBP (pMAL-c5g); chain copies: 2; label: 5'-biotin; blunt
T2 sequence: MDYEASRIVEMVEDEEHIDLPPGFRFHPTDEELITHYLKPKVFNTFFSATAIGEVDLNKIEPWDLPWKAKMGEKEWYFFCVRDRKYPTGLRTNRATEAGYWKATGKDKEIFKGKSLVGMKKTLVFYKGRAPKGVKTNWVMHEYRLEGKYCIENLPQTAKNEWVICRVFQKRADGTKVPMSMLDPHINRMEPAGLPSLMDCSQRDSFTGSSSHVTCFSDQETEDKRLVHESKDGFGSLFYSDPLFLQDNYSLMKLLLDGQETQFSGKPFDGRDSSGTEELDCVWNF

[3] = biological target: T1, MBP-N-EIN3; assay: competition; unlabeled 800-fold excess vs NYC1-EBS; LightShift Chemiluminescent EMSA kit binding buffer (composition, pH, temperature not given); 400 ng protein, 12.5 fmol 5'-biotin probe, 1 ug poly(dI-dC), 15 min; settings: protein: recombinant; tags: N-terminal MBP (pMAL-c5g); chain copies: 2; blunt
[4] = biological target: T1, MBP-N-EIN3; assay: competition; unlabeled 800-fold excess vs NYE1-EBS; LightShift Chemiluminescent EMSA kit binding buffer (composition, pH, temperature not given); 400 ng protein, 12.5 fmol 5'-biotin probe, 1 ug poly(dI-dC), 15 min; settings: protein: recombinant; tags: N-terminal MBP (pMAL-c5g); chain copies: 2; blunt
[5] = biological target: T1, MBP-N-EIN3; assay: competition; unlabeled 800-fold excess vs ORE1-EBS; LightShift Chemiluminescent EMSA kit binding buffer (composition, pH, temperature not given); 400 ng protein, 12.5 fmol 5'-biotin probe, 1 ug poly(dI-dC), 15 min; settings: protein: recombinant; tags: N-terminal MBP (pMAL-c5g); chain copies: 2; blunt
[6] = biological target: T1, MBP-N-EIN3; assay: competition; unlabeled 800-fold excess vs PAO-EBS; LightShift Chemiluminescent EMSA kit binding buffer (composition, pH, temperature not given); 400 ng protein, 12.5 fmol 5'-biotin probe, 1 ug poly(dI-dC), 15 min; settings: protein: recombinant; tags: N-terminal MBP (pMAL-c5g); chain copies: 2; blunt

B1: NYE1-EBS (dsDNA)
DNA 1: GTTTAGGTAAGCAATACGAACCTGGATAAACGAAATGC
DNA 2: GCATTTCGTTTATCCAGGTTCGTATTGCTTACCTAAAC
B1: binds [1].

B2: NYC1-EBS (dsDNA)
DNA 1: TAATTTACTCAGGTACATAAGTAATGAC
DNA 2: GTCATTACTTATGTACCTGAGTAAATTA
B2: binds [1].

B3: ACS2-OBS (dsDNA)
DNA 1: GGAATTATGTGGAGGACGTACGTTTATACATGTGCAGACTACAAC
DNA 2: GTTGTAGTCTGCACATGTATAAACGTACGTCCTCCACATAATTCC
B3: binds [2].

B4: NYE1-OBS (dsDNA)
DNA 1: GTGGTTTCAGTGTACGAACACGCAAGAACTC
DNA 2: GAGTTCTTGCGTGTTCGTACACTGAAACCAC
B4: binds [2].

B5: NYC1-EBSm (dsDNA)
DNA 1: TAATTTACTCAAAAAAAAAAGTAATGAC
DNA 2: GTCATTACTTTTTTTTTTGAGTAAATTA
B5: no binding [3].

B6: PAO-EBS (dsDNA)
DNA 1: GCTTGAAATAAGATTCATCAGAAGAGTA
DNA 2: TACTCTTCTGATGAATCTTATTTCAAGC
B6: binds [1].

B7: NYC1-OBS (dsDNA)
DNA 1: GAGGTTGCTGTAACGTGTGGCCATCACAC
DNA 2: GTGTGATGGCCACACGTTACAGCAACCTC
B7: binds [2].

B8: PAO-OBS (dsDNA)
DNA 1: ATTGCATACTTGCACGCAATCTCTTCTTC
DNA 2: GAAGAAGAGATTGCGTGCAAGTATGCAAT
B8: binds [2].

B9: NYE1-EBSm (dsDNA)
DNA 1: GTTTAGGTAAGCAATTTTTTTTTGGATAAACGAAATGC
DNA 2: GCATTTCGTTTATCCAAAAAAAAATTGCTTACCTAAAC
B9: no binding [4].

B10: NOL-OBS (dsDNA)
DNA 1: AGCTTGCTCGCTTACGCAACTCTCTCTCT
DNA 2: AGAGAGAGAGTTGCGTAAGCGAGCAAGCT
B10: binds [2].

B11: ORE1-EBSm (dsDNA)
DNA 1: ATACTTTACAAGGGTAATGCATGCATAC
DNA 2: GTATGCATGCATTACCCTTGTAAAGTAT
B11: no binding [5].

B12: PAO-EBSm (dsDNA)
DNA 1: GCTTGAAATAAAAAAAAACAGAAGAGTA
DNA 2: TACTCTTCTGTTTTTTTTTATTTCAAGC
B12: no binding [6].
